Measured values published in PMC8546121 (Nature Communications, 2021).

Assays:
[1] = biological target: MACV MBP-Z fusion protein (full-length wild-type MACV Z protein) (Machupo virus) (UniProt Q6IUF9); test: […] (20 mM Tris-HCl pH 8.0, 500 mM NaCl, 2 mM DTT), […]
[2] = biological target: Machupo virus (MACV) L protein (Machupo virus, UniProt Q6IUF8 1-2209); test: as above; conditions: both partners purified
Sequence of Machupo virus (MACV) L protein (Q6IUF8 whole entry): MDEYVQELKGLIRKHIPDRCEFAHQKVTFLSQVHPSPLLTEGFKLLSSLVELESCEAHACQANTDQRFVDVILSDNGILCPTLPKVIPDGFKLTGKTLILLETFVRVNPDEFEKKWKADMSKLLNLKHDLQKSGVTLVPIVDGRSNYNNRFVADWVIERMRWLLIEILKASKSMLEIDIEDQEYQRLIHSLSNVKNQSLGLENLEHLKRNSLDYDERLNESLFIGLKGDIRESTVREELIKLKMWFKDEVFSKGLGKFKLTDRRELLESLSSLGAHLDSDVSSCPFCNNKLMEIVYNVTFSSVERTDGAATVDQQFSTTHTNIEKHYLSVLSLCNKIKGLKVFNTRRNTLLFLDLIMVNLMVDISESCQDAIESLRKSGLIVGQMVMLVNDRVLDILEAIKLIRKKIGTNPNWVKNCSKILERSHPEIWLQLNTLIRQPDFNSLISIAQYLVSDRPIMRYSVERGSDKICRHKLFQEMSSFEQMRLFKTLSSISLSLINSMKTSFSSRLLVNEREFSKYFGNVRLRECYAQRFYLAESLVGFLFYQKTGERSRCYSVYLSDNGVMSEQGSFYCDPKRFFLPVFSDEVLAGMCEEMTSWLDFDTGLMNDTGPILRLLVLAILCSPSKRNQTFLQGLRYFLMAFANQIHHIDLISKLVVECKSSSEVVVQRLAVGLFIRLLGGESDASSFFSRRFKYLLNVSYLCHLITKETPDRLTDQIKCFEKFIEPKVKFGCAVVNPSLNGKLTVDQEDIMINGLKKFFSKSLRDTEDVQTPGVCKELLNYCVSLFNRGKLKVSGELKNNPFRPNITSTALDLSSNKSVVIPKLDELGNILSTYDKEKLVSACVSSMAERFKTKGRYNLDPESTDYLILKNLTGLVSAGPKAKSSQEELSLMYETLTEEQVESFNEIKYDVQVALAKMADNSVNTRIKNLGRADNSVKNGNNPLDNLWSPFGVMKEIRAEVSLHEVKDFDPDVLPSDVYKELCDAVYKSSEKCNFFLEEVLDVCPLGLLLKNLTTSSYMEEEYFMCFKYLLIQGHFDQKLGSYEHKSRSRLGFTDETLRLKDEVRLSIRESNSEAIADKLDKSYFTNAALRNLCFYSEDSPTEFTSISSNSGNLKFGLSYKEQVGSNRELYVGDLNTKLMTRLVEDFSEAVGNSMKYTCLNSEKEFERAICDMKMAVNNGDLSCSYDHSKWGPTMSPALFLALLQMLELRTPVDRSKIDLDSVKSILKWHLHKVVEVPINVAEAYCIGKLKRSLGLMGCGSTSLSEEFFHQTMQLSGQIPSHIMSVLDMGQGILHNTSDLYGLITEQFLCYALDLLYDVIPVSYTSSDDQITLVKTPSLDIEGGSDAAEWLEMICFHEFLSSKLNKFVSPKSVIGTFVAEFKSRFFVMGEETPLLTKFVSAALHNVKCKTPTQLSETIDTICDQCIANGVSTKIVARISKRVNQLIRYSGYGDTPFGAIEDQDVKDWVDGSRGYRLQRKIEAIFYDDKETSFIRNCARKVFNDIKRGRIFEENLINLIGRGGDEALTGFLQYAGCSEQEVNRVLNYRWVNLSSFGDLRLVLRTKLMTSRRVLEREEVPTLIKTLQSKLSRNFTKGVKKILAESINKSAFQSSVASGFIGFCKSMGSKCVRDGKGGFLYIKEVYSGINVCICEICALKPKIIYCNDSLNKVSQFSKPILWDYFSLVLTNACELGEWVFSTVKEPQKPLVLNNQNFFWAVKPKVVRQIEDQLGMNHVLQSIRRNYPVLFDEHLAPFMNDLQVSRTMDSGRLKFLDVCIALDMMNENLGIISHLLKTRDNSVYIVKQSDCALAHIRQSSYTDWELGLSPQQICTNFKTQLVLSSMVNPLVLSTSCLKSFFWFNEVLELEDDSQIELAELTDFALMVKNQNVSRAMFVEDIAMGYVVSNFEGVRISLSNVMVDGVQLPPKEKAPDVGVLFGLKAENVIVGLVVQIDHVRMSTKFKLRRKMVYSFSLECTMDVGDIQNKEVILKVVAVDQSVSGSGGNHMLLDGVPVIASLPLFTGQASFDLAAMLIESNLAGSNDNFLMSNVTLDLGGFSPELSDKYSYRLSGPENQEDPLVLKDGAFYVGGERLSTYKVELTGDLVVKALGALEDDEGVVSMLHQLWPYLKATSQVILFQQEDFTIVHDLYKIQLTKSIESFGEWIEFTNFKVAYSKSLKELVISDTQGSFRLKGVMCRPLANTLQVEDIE

Molecule: Machupo virus (MACV) L protein, Q6IUF8 1-2209
- stoichiometry N [1]: 1 Z:L

B1: MACV MBP-Z fusion protein (full-length wild-type MACV Z protein) (natural protein)
chain: MGNCNKPPKRPPNTQTSAAQPSAEFRRTALPSLYGRYNCKCCWFADTNLITCNDHYLCLRCHQTMLRNSELCHICWKPLPTSITVPVEPSAPPP
- binding result [2]: binds
